Measured values reported in patent publication US20250177503A1, “COMPOSITIONS AND METHODS FOR TREATING AUTOIMMUNE DISORDERS” (THE REGENTS OF THE UNIVERSITY OF MICHIGAN, priority 2022, published 2025).

Tested on: CD4+CD25+Foxp3+T regulatory cells (Tregs)
Assay: Example III: dosing regimen optimisation, ND-OVA + IL-2/IC vs ND-OVA + wtIL-2, flow cytometry of peripheral blood CD4+ T cells
Assay type: in vivo, C57BL/6 mice
Conditions: summary of findings
Protocol: Animals were cared for following federal, state, and local guidelines. All work performed on animals was in accordance with and approved by Institutional Animal Care & Use Committee (IACUC) at the University of Michigan, Ann Arbor. Seven-week-old female C57BL/6 mice were randomly divided into 6 groups with 5 mice in each group. For Group 1 (ND-OVA_D−3,+7+IL2/IC_D3,4,5): 0.1 mL of ND-OVA (containing 0.1 mg OVA-II peptide) was injected into each mouse subcutaneously at the tail base at Day −3 and Day 7; 0.1 mL IL2/IC (containing 1 μg murine IL-2 and […] IL-2 mAb) was injected into each mouse intraperitoneally (i.p.) at Days 0, 1, 2, and Days 10, 11, 12. For Group 2 (ND-OVA_D−4,+6+IL2/IC_D4,5,6): 0.1 mL of ND-OVA (containing 0.1 mg OVA-II peptide) was injected into each mouse subcutaneously at the tail base at Day −4 and Day 6; 0.1 mL IL2/IC (containing […] murine IL-2 and 5 μg IL-2 mAb) was injected into each mouse intraperitoneally (i.p.) at Days 0, 1, 2, and Days 10, 11, 12. For Group 3 (ND-OVA_D−3,+7+IL2/IC_D3,4,5,6,7): 0.1 mL of ND-OVA (containing 0.1 mg OVA-II peptide) was injected into each mouse subcutaneously at the tail base at Day −3 and Day 7; 0.1 mL IL2 (containing 1 μg murine IL-2) was injected into each mouse intraperitoneally (i.p.) at Days 0, 1, 2, 3, 4 and Days 10, 11, 12, 13, 14. […]

B1: IL-2: recombinant murine IL-2 (wild type IL-2 protein) (protein, UniProt P04351 21-169, looked up)
Interleukin-2: APTSSSTSSSTAEAQQQQQQQQQQQQHLEQLLMDLQELLSRMENYRNLKLPRMLTFKFYLPKQATELKDLQCLEDELGPLRHVLDLTQSKSFQLEDAENFISNIRVTVVKLKGSDNTFECQFDDESATVVDFLRRWIAFCQSIISTSPQ
Q: Which “expansion of total Tregs and antigen-specific Tregs” value does the source give for B1 here?
A: fails to expand
